Measurements published in IntAct's records for PubMed 23245941.

B1: Transcriptional coactivator YAP1 (Homo sapiens), P46937-3 (parent)
chain: MDPGQQPPPQPAPQGQGQPPSQPPQGQGPPSGPGQPAPAATQAAPQAPPAGHQIVHVRGDSETDLEALFNAVMNPKTANVPQTVPMRLRKLPDSFFKPPEPKSHSRQASTDAGTAGALTPQHVRAHSSPASLQLGAVSPGTLTPTGVVSGPAATPTAQHLRQSSFEIPDDVPLPAGWEMAKTSSGQRYFLNHIDQTTTWQDPRKAMLSQMNVTAPTSPPVQQNMMNSASAMNQRISQSAPVKQPPPLAPQSPQGGVMGGSNSNQQQQMRLQQLQMEKERLRLKQQELLRQVRPQELALRSQLPTLEQDGGTQNPVSSPGMSQELRTMTTNSSDPFLNSGTYHSRDESTDSGLSMSSYSVPRTPDDFLNSVDEMDTGDTINQSTLPSQQNRFPDYLEAIPGTNVDLGTLEGDGMNIEGEELMPSLQEALSSDILNDMESVLAATKLDKESFLTWL

Variants of: B1
Conditions: with ctnb1_human CTNNB1, P35222
ctnb1_human CTNNB1, P35222, sequence (P35222 whole entry): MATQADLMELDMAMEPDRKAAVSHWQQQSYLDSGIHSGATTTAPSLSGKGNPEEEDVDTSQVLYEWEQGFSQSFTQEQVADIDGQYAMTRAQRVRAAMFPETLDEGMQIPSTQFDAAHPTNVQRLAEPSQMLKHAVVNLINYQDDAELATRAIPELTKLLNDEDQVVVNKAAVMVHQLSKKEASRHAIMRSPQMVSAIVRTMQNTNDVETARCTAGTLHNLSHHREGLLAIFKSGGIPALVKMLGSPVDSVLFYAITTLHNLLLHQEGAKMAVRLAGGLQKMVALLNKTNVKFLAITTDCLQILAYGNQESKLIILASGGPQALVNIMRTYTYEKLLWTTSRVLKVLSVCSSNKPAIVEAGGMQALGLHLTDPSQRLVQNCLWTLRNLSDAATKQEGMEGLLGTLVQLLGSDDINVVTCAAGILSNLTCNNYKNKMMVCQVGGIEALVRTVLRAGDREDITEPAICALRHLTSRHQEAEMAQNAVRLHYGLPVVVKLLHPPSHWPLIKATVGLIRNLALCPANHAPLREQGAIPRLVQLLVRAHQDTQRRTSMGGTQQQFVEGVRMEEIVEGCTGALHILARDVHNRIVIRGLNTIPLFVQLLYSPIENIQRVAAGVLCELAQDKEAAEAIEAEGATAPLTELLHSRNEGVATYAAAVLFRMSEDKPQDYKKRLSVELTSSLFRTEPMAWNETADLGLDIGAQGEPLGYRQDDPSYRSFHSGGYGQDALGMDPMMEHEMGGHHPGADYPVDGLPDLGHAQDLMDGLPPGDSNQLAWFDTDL

effect of a mutation on the interaction	Variant
increasing interaction strength	Y357F
